Measured values reported in patent US20130326725.

Tests used:
Test in all cases: cell_activity
[1] = system: ZFN 107835L (28563) (synthetic construct); conditions: as pair 107835L/R (pKG7482); tomato protoplasts, 48 h; also active in yeast assay
[2] = system: ZFN 107830L (28491) (synthetic construct); conditions: as pair 107830L/R (pKG7479); tomato protoplasts, 48 h; also active in yeast assay
[3] = system: ZFN 107832R (28536) (synthetic construct); conditions: as pair 107832L/R (pKG7480); tomato protoplasts, 48 h; also active in yeast assay
[4] = system: ZFN 107835R (28564) (synthetic construct); conditions: as pair 107835L/R (pKG7482); tomato protoplasts, 48 h; also active in yeast assay
[5] = system: ZFN 107833R (28550) (synthetic construct); conditions: as pair 107833L/R (pKG7481); tomato protoplasts, 48 h; also active in yeast assay
[6] = system: ZFN 107830R (28492) (synthetic construct); conditions: as pair 107830L/R (pKG7479); tomato protoplasts, 48 h; also active in yeast assay
[7] = system: ZFN 107832L (28535) (synthetic construct); conditions: as pair 107832L/R (pKG7480); tomato protoplasts, 48 h; also active in yeast assay
[8] = system: ZFN 107833L (28549) (synthetic construct); conditions: as pair 107833L/R (pKG7481); tomato protoplasts, 48 h; also active in yeast assay

Question: “GGCTTATTACCTTGGATGCGAAGAAGGGAAGCTCGGTGAC (double strand) [107835L target]” was tested. Which activity (% indel clones) [1] did it give?
Answer: Its activity (% indel clones) is 0.7.

Question: With “CGGATCCCGATGCGAATCCACGGCGAGATACATAGGATGCT (double strand) [107830L target]” as the sequence, how does the activity (% indel clones) [2] read?
Answer: The activity (% indel clones) was 4.1.

Question: “CTCTTTGGAGTTACCATGCTTGATGTGGTTAGGGCCAAG (double strand) [107832R target]” was tested. Which activity (% indel clones) [3] did it give?
Answer: The activity (% indel clones) was 5.5.

Question: “GTCACCGAGCTTCCCTTCTTCGCATCCAAGGTAATAAGCC (double strand) [107835R target]” was tested. Which activity (% indel clones) [4] did it give?
Answer: The activity (% indel clones) was 0.7.

Question: “TTCAGAGGTCAATCTCCCAGTAGTTGGTGGTCATGCTGGCATAAC (double strand) [107833R target]” was tested. Which activity (% indel clones) [5] did it give?
Answer: Its activity (% indel clones) is 2.

Question: For “AGCATCCTATGTATCTCGCCGTGGATTCGCATCGGGATCCG (double strand) [107830R target]”, which activity (% indel clones) [6] is on record?
Answer: The activity (% indel clones) was 4.1.

Question: With “CTTGGCCCTAACCACATCAAGCATGGTAACTCCAAAGAG (double strand) [107832L target]” as the sequence, how does the activity (% indel clones) [7] read?
Answer: The activity (% indel clones) was 5.5.

Question: How did the activity (% indel clones) [8] turn out when “GTTATGCCAGCATGACCACCAACTACTGGGAGATTGACCTCTGAA (double strand) [107833L target]” was run?
Answer: Its activity (% indel clones) is 2.
